Assay results taken from IntAct's records for PubMed 11042109.

B1: RING finger protein 11 (Mus musculus), Q9QYK7 (parent)
chain: MGNCLKSPTSDDISLLHESQSDRASFGEGTEPDQEPPPPYQEQVPVPIYHPTPSQTRLATQLTEEEQIRIAQRIGLIQHLPKGVYDPGRDGSEKKIRECVICMMDFVYGDPIRFLPCMHIYHLDCIDDWLMRSFTCPSCMEPVDAALLSSYETN
B2: WW domain-binding protein 1 (Mus musculus), P97764 (parent)
chain: MARASSRNSSEEAWGSLQAPQQQQSPAASSLEGAIWRRAGTQTRALDTILYHPQQSHLLRELCPGVNTQPYLCETGHCCGETGCCTYYYELWWFWLLWTVLILFSCCCAFRHRRAKLRLQQQQRQREINLLAYHGACHGAGPVPTGSLLDLRLLSAFKPPAYEDVVHHPGTPPPPYTVGPGYPWTTSSECTRCSSESSCSAHLEGTNVEGVSSQQSALPHQEGEPRAGLSPVHIPPSCRYRRLTGDSGIELCPCPDSSEGEPLKEARASASQPDLEDHSPCALPPDSVSQVPPMGLASSCGDIP
B3: WW domain-binding protein 2 (Mus musculus), P97765 (parent)
chain: MALNKNHSEGGGVIVNNTESILMSYDHVELTFNDMKNVPEAFKGTKKGTVYLTPYRVIFLSKGKDAMQSFMMPFYLMKDCEIKQPVFGANFIKGIVKAEAGGGWEGSASYKLTFTAGGAIEFGQRMLQVASQASRGEVPNGAYGYPYMPSGAYVFPPPVANGMYPCPPGYPYPPPPPEFYPGPPMMDGAMGYVQPPPPPYPGPMEPPVSGPSAPATPAAEAKAAEAAASAYYNPGNPHNVYMPTSQPPPPPYYPPEDKKTQ
B4: Protein BEAN1 (Mus musculus), Q9EQG5 (parent)
chain: MSFKRPCPLARYNRTSYFYPTTFSESSEHSHLLVSPVLVASAVIGVVITLSCITIIVGSIRRDRQARIQRHHHRHRRHHHHHRHRRRRHREYASGGHTHSRSSPRMPYACSPAEDWPPPLDVSSEGDVDVTVLWELYPDSPPGYEECMGPGATQLYVPTDAPPPYSMTDSCPRLNGALDSDSGQSRSHRQQEQRTQGQSRLHTVSMDTLPPYEAVCGTGSPSDLLPLPGPEPWPSNSQGSPIPTQAPMPSPERIV
B5: NEDD4 family-interacting protein 1 (Mus musculus), Q8R0W6 (parent)
chain: MALALAALAAVEPACGSGYQQLQNEEEPGEPEQTAGDAPPPYSSITAESAAYFDYKDESGFPKPPSYNVATTLPSYDEAERTKTEATIPLVPGRDEDFVGRDDFDDTDQLRIGNDGIFMLTFFMAFLFNWIGFFLSFCLTTSAAGRYGAISGFGLSLIKWILIVRFSTYFPGYFDGQYWLWWVFLVLGFLLFLRGFINYAKVRKMPETFSNLPRTRVLFIY
B6: Protein TMEPAI (Mus musculus), Q9D7R2 (parent)
chain: MSPARATAQRSLFPSMEITELEFVQIVVIVVVMMVMVVMITCLLSHYKLSARSFISRHSQARRRDDGLSSEGCLWPSESTVSGGMPEPQVYAPPRPTDRLAVPPFIQRSRFQPTYPYLQHEIALPPTISLSDGEEPPPYQGPCTLQLRDPEQQLELNRESVRAPPNRTIFDSDLIDSTMLGGPCPPSSNSGISATCYSSGGRMEGPPPTYSEVIGHYPGSSFQHQQSNGPSSLLEGTRLHHSHIAPLENKEKEKQKGHPL
B7: Lipopolysaccharide-induced tumor necrosis factor-alpha factor homolog (Mus musculus), Q9JLJ0 (parent)
chain: MSAPGPYQAAAGPSVVPTAPPTYEETVGVNSYYPTPPAPMPGPATGLITGPDGKGMNPPSYYTQPVPVPNANAIAVQTVYVQQPVSFYDRPVQMCCPSCSKMIVTQLSYNAGALTWLSCGSLCLLGCVAGCCFIPFCVDALQDVDHYCPNCKALLGTYKRL

Variants of: B1
Details: with nedd4_mouse Nedd4, P46935
Target sequence in this assay (P46935 whole entry): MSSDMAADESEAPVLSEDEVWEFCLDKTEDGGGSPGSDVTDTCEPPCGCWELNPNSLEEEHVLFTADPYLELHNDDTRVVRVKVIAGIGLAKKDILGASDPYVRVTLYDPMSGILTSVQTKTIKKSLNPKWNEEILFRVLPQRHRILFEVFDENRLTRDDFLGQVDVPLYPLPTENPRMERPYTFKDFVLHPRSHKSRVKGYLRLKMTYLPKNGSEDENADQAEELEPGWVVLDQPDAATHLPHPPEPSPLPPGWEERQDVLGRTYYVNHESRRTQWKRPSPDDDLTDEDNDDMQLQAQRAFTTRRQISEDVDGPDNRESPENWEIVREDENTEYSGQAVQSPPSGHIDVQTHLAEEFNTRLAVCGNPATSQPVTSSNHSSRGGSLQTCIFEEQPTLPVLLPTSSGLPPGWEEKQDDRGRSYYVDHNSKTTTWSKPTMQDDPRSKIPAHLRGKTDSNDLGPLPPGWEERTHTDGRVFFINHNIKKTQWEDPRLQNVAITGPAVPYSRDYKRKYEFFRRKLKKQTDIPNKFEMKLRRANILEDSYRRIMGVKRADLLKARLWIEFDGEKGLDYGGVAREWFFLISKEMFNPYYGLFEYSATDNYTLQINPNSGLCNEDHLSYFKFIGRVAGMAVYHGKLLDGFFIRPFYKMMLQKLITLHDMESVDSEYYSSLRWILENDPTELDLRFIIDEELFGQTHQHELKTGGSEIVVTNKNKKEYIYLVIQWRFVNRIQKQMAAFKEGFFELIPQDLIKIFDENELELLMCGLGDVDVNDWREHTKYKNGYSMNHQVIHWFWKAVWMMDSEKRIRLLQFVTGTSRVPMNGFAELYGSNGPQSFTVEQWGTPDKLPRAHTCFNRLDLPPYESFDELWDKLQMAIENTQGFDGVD

effect of a mutation on the interaction | Variant
disrupting interaction | MGNCLKSPTSDDISLLHESQSDRASFGEGTEPDQEPPPPAQEQVPVPIYHPTPSQTRLATQLTEEEQIRIAQRIGLIQHLPKGVYDPGRDGSEKKIRECVICMMDFVYGDPIRFLPCMHIYHLDCIDDWLMRSFTCPSCMEPVDAALLSSYETN [Y40A]

Variants of: B1
Details: with nedd4_mouse Nedd4, P46935
Remark: another data set of the same source
Target sequence in this assay (P46935 whole entry): as the sequence (P46935 whole entry) above

effect of a mutation on the interaction | Variant
disrupting interaction strength | MGNCLKSPTSDDISLLHESQSDRASFGEGTEPDQEPPPPAQEQVPVPIYHPTPSQTRLATQLTEEEQIRIAQRIGLIQHLPKGVYDPGRDGSEKKIRECVICMMDFVYGDPIRFLPCMHIYHLDCIDDWLMRSFTCPSCMEPVDAALLSSYETN [Y40A]

Variants of: B2
Details: with nedd4_mouse Nedd4, P46935
Target sequence in this assay (P46935 whole entry): as the sequence (P46935 whole entry) above

effect of a mutation on the interaction | Variant
disrupting interaction strength | MARASSRNSSEEAWGSLQAPQQQQSPAASSLEGAIWRRAGTQTRALDTILYHPQQSHLLRELCPGVNTQPYLCETGHCCGETGCCTYYYELWWFWLLWTVLILFSCCCAFRHRRAKLRLQQQQRQREINLLAYHGACHGAGPVPTGSLLDLRLLSAFKPPAYEDVVHHPGTPPPPATVGPGYPWTTSSECTRCSSESSCSAHLEGTNVEGVSSQQSALPHQEGEPRAGLSPVHIPPSCRYRRLTGDSGIELCPCPDSSEGEPLKEARASASQPDLEDHSPCALPPDSVSQVPPMGLASSCGDIP [Y176A]

Variants of: B2
Details: with nedd4_mouse Nedd4, P46935
Remark: another data set of the same source
Target sequence in this assay (P46935 whole entry): as the sequence (P46935 whole entry) above

effect of a mutation on the interaction | Variant
disrupting interaction strength | MARASSRNSSEEAWGSLQAPQQQQSPAASSLEGAIWRRAGTQTRALDTILYHPQQSHLLRELCPGVNTQPYLCETGHCCGETGCCTYYYELWWFWLLWTVLILFSCCCAFRHRRAKLRLQQQQRQREINLLAYHGACHGAGPVPTGSLLDLRLLSAFKPPAAEDVVHHPGTPPPPYTVGPGYPWTTSSECTRCSSESSCSAHLEGTNVEGVSSQQSALPHQEGEPRAGLSPVHIPPSCRYRRLTGDSGIELCPCPDSSEGEPLKEARASASQPDLEDHSPCALPPDSVSQVPPMGLASSCGDIP [Y162A]

Variants of: B3
Details: with nedd4_mouse Nedd4, P46935
Target sequence in this assay (P46935 whole entry): as the sequence (P46935 whole entry) above

effect of a mutation on the interaction | Variant
decreasing interaction strength | MALNKNHSEGGGVIVNNTESILMSYDHVELTFNDMKNVPEAFKGTKKGTVYLTPYRVIFLSKGKDAMQSFMMPFYLMKDCEIKQPVFGANFIKGIVKAEAGGGWEGSASYKLTFTAGGAIEFGQRMLQVASQASRGEVPNGAYGYPYMPSGAYVFPPPVANGMYPCPPGYPYPPPPPEFYPGPPMMDGAMGYVQPPPPPAPGPMEPPVSGPSAPATPAAEAKAAEAAASAYYNPGNPHNVYMPTSQPPPPPYYPPEDKKTQ [Y200A]

Variants of: B3
Details: with nedd4_mouse Nedd4, P46935
Remark: another data set of the same source
Target sequence in this assay (P46935 whole entry): as the sequence (P46935 whole entry) above

effect of a mutation on the interaction | Variant
decreasing interaction strength | MALNKNHSEGGGVIVNNTESILMSYDHVELTFNDMKNVPEAFKGTKKGTVYLTPYRVIFLSKGKDAMQSFMMPFYLMKDCEIKQPVFGANFIKGIVKAEAGGGWEGSASYKLTFTAGGAIEFGQRMLQVASQASRGEVPNGAYGYPYMPSGAYVFPPPVANGMYPCPPGYPYPPPPPEFYPGPPMMDGAMGYVQPPPPPAPGPMEPPVSGPSAPATPAAEAKAAEAAASAYYNPGNPHNVYMPTSQPPPPPYYPPEDKKTQ [Y200A]

Variants of: B3
Details: with nedd4_mouse Nedd4, P46935
Remark: another data set of the same source

effect of a mutation on the interaction | Variant
disrupting interaction strength | MALNKNHSEGGGVIVNNTESILMSYDHVELTFNDMKNVPEAFKGTKKGTVYLTPYRVIFLSKGKDAMQSFMMPFYLMKDCEIKQPVFGANFIKGIVKAEAGGGWEGSASYKLTFTAGGAIEFGQRMLQVASQASRGEVPNGAYGYPYMPSGAYVFPPPVANGMYPCPPGYPYPPPPPEFYPGPPMMDGAMGYVQPPPPPAPGPMEPPVSGPSAPATPAAEAKAAEAAASAYYNPGNPHNVYMPTSQPPPPPYYPPEDKKTQ [Y200A]

Variants of: B3
Details: with nedd4_mouse Nedd4, P46935
Remark: another data set of the same source

effect of a mutation on the interaction | Variant
decreasing interaction strength | MALNKNHSEGGGVIVNNTESILMSYDHVELTFNDMKNVPEAFKGTKKGTVYLTPYRVIFLSKGKDAMQSFMMPFYLMKDCEIKQPVFGANFIKGIVKAEAGGGWEGSASYKLTFTAGGAIEFGQRMLQVASQASRGEVPNGAYGYPYMPSGAYVFPPPVANGMYPCPPGYPYPPPPPEFYPGPPMMDGAMGYVQPPPPPYPGPMEPPVSGPSAPATPAAEAKAAEAAASAYYNPGNPHNVYMPTSQPPPPPAYPPEDKKTQ [Y252A]

Variants of: B4
Details: with nedd4_mouse Nedd4, P46935

effect of a mutation on the interaction | Variant
disrupting interaction strength | MSFKRPCPLARYNRTSYFYPTTFSESSEHSHLLVSPVLVASAVIGVVITLSCITIIVGSIRRDRQARIQRHHHRHRRHHHHHRHRRRRHREYASGGHTHSRSSPRMPYACSPAEDWPPPLDVSSEGDVDVTVLWELYPDSPPGAEECMGPGATQLYVPTDAPPPYSMTDSCPRLNGALDSDSGQSRSHRQQEQRTQGQSRLHTVSMDTLPPYEAVCGTGSPSDLLPLPGPEPWPSNSQGSPIPTQAPMPSPERIV [Y144A]
disrupting interaction strength | MSFKRPCPLARYNRTSYFYPTTFSESSEHSHLLVSPVLVASAVIGVVITLSCITIIVGSIRRDRQARIQRHHHRHRRHHHHHRHRRRRHREYASGGHTHSRSSPRMPYACSPAEDWPPPLDVSSEGDVDVTVLWELYPDSPPGYEECMGPGATQLYVPTDAPPPASMTDSCPRLNGALDSDSGQSRSHRQQEQRTQGQSRLHTVSMDTLPPYEAVCGTGSPSDLLPLPGPEPWPSNSQGSPIPTQAPMPSPERIV [Y165A]
disrupting interaction strength | MSFKRPCPLARYNRTSYFYPTTFSESSEHSHLLVSPVLVASAVIGVVITLSCITIIVGSIRRDRQARIQRHHHRHRRHHHHHRHRRRRHREYASGGHTHSRSSPRMPYACSPAEDWPPPLDVSSEGDVDVTVLWELYPDSPPGAEECMGPGATQLYVPTDAPPPASMTDSCPRLNGALDSDSGQSRSHRQQEQRTQGQSRLHTVSMDTLPPYEAVCGTGSPSDLLPLPGPEPWPSNSQGSPIPTQAPMPSPERIV [Y144A;Y165A]

Variants of: B4
Details: with nedd4_mouse Nedd4, P46935
Remark: another data set of the same source

effect of a mutation on the interaction | Variant
disrupting interaction strength | MSFKRPCPLARYNRTSYFYPTTFSESSEHSHLLVSPVLVASAVIGVVITLSCITIIVGSIRRDRQARIQRHHHRHRRHHHHHRHRRRRHREYASGGHTHSRSSPRMPYACSPAEDWPPPLDVSSEGDVDVTVLWELYPDSPPGAEECMGPGATQLYVPTDAPPPASMTDSCPRLNGALDSDSGQSRSHRQQEQRTQGQSRLHTVSMDTLPPYEAVCGTGSPSDLLPLPGPEPWPSNSQGSPIPTQAPMPSPERIV [Y144A;Y165A]

Variants of: B5
Details: with nedd4_mouse Nedd4, P46935

effect of a mutation on the interaction | Variant
decreasing interaction strength | MALALAALAAVEPACGSGYQQLQNEEEPGEPEQTAGDAPPPASSITAESAAYFDYKDESGFPKPPSYNVATTLPSYDEAERTKTEATIPLVPGRDEDFVGRDDFDDTDQLRIGNDGIFMLTFFMAFLFNWIGFFLSFCLTTSAAGRYGAISGFGLSLIKWILIVRFSTYFPGYFDGQYWLWWVFLVLGFLLFLRGFINYAKVRKMPETFSNLPRTRVLFIY [Y42A]

Variants of: B6
Details: with nedd4_mouse Nedd4, P46935

effect of a mutation on the interaction | Variant
disrupting interaction strength | MSPARATAQRSLFPSMEITELEFVQIVVIVVVMMVMVVMITCLLSHYKLSARSFISRHSQARRRDDGLSSEGCLWPSESTVSGGMPEPQVYAPPRPTDRLAVPPFIQRSRFQPTYPYLQHEIALPPTISLSDGEEPPPYQGPCTLQLRDPEQQLELNRESVRAPPNRTIFDSDLIDSTMLGGPCPPSSNSGISATCYSSGGRMEGPPPTASEVIGHYPGSSFQHQQSNGPSSLLEGTRLHHSHIAPLENKEKEKQKGHPL [Y210A]

Variants of: B6
Details: with nedd4_mouse Nedd4, P46935
Remark: another data set of the same source

effect of a mutation on the interaction | Variant
disrupting interaction strength | MSPARATAQRSLFPSMEITELEFVQIVVIVVVMMVMVVMITCLLSHYKLSARSFISRHSQARRRDDGLSSEGCLWPSESTVSGGMPEPQVYAPPRPTDRLAVPPFIQRSRFQPTYPYLQHEIALPPTISLSDGEEPPPYQGPCTLQLRDPEQQLELNRESVRAPPNRTIFDSDLIDSTMLGGPCPPSSNSGISATCYSSGGRMEGPPPTASEVIGHYPGSSFQHQQSNGPSSLLEGTRLHHSHIAPLENKEKEKQKGHPL [Y210A]

Variants of: B6
Details: with nedd4_mouse Nedd4, P46935
Remark: another data set of the same source

effect of a mutation on the interaction | Variant
decreasing interaction strength | MSPARATAQRSLFPSMEITELEFVQIVVIVVVMMVMVVMITCLLSHYKLSARSFISRHSQARRRDDGLSSEGCLWPSESTVSGGMPEPQVYAPPRPTDRLAVPPFIQRSRFQPTYPYLQHEIALPPTISLSDGEEPPPAQGPCTLQLRDPEQQLELNRESVRAPPNRTIFDSDLIDSTMLGGPCPPSSNSGISATCYSSGGRMEGPPPTYSEVIGHYPGSSFQHQQSNGPSSLLEGTRLHHSHIAPLENKEKEKQKGHPL [Y139A]

Variants of: B7
Details: with nedd4_mouse Nedd4, P46935

effect of a mutation on the interaction | Variant
disrupting interaction strength | Y23A
